Legend:
[1] = target: CD20 (human (endogenous in Ramos)) (UniProt P11836)
[2] = target: CD20 (human (endogenous in Ramos)) (UniProt P11836); remark: listed apart in the source
[3] = target: CD20 (human (endogenous in Ramos)) (UniProt P11836); test: flow cytometry on cells; 1E6 Ramos cells incubated with 0.5μg (16.7nM) or 1μg (33.3nM) of the RTX variant (non-saturating amounts); bound antibody detected with FITC murine monoclonal anti human kappa light chain antibody; read-out: MFI of the variant divided by MFI of the IgG1 control

Sequence of UniProt P11836 (P11836 whole entry): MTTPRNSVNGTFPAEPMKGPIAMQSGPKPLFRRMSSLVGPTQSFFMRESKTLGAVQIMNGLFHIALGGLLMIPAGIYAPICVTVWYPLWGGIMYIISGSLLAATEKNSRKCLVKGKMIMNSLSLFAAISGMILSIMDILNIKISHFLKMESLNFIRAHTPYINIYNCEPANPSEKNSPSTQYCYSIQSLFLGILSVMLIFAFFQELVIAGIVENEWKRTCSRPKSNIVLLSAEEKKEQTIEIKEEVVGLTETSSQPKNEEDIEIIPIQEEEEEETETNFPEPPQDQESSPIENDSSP

apoptosis of Ramos cells after 24h (AnnexinV-FITC positive cells, absolute), 2000ng antibody, no crosslinker [1] | apoptosis of Ramos cells after 24h, normalised to the IgG1 control without crosslinker (100%) (% of IgG1 control) [2] | IgG1 signal ratio (MFI of RTX variant divided by MFI of IgG1 control) at 0.5μg [3] | IgG1 signal ratio (MFI of RTX variant divided by MFI of IgG1 control) at 1μg [3] | Substance
41 % of cells | 441 | – | – | Rituximab IgG4P (antibody)
11 % of cells | – | – | – | Rituximab IgG1 a1 (antibody)
49 % of cells | 546 | 0.37 | 0.42 | Rituximab IgG2 (antibody)
